Biological target: ccnd1_human CCND1 (UniProt P24385)
Sequence (P24385 whole entry): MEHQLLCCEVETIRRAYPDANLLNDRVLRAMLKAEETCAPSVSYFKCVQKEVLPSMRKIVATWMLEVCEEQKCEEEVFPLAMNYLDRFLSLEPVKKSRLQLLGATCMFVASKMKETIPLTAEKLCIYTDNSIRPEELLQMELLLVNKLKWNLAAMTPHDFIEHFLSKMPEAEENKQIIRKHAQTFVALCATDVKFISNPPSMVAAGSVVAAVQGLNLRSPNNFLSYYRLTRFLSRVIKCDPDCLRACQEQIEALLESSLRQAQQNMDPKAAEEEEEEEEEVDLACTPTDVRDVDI

## Nucleoprotein (Human SARS coronavirus), P59595 S207A;P208A;A209L;R210G
  effect of a mutation on the interaction: decreasing interaction strength

Reference: IntAct's records for PubMed 16431923
